Data published in patent US20140087436.
Numbering of substitutions follows the chain as printed.

What was measured:
Experiment in all cases: cell_activity
[1] = target: T1, CbbR A167V (Ralstonia eutropha) (UniProt P42722); conditions: beta-galactosidase, chemoheterotrophic; chemoautotrophic 7373
T1 sequence: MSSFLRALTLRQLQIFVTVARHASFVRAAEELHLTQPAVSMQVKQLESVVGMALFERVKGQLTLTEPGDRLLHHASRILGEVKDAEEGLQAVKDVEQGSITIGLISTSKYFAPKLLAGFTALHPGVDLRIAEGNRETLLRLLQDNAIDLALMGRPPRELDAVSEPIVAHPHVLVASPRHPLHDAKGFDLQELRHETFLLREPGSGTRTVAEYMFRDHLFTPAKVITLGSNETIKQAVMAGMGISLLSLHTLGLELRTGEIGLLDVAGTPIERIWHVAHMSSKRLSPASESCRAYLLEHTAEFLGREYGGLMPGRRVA

[2] = target: T2, CbbR E87K/G242S (Ralstonia eutropha) (UniProt P42722); conditions: beta-galactosidase, chemoheterotrophic; chemoautotrophic 4820
T2 sequence: T1 sequence with E87K, V167A, G242S

[3] = target: T3, CbbR G125D (Ralstonia eutropha) (UniProt P42722); conditions: beta-galactosidase, chemoheterotrophic; chemoautotrophic 6777
T3 sequence: T1 sequence with G125D, V167A

[4] = target: T4, CbbR G205D (Ralstonia eutropha) (UniProt P42722); conditions: beta-galactosidase, chemoheterotrophic; chemoautotrophic 2241
T4 sequence: T1 sequence with V167A, G205D

[5] = target: T5, CbbR P269S/T299I (Ralstonia eutropha) (UniProt P42722); conditions: beta-galactosidase, chemoheterotrophic; chemoautotrophic 3879
T5 sequence: T1 sequence with V167A, P269S, T299I

[6] = target: T6, CbbR T232I (Ralstonia eutropha) (UniProt P42722); conditions: beta-galactosidase, chemoheterotrophic; chemoautotrophic 5005
T6 sequence: T1 sequence with V167A, T232I

[7] = target: T7, CbbR P221S/T299I (Ralstonia eutropha) (UniProt P42722); conditions: beta-galactosidase, chemoheterotrophic; chemoautotrophic 5312
T7 sequence: T1 sequence with V167A, P221S, T299I

[8] = target: T8, CbbR T232A (Ralstonia eutropha) (UniProt P42722); conditions: beta-galactosidase, chemoheterotrophic; chemoautotrophic 5269
T8 sequence: T1 sequence with V167A, T232A

cbb promoter in lacZ reporter strain
activity [1]: 768 nmol/min/mg | activity [2]: 303 nmol/min/mg | activity [3]: 108 nmol/min/mg | activity [4]: 488 nmol/min/mg | activity [5]: 617 nmol/min/mg | activity [6]: 303 nmol/min/mg | activity [7]: 655 nmol/min/mg | activity [8]: 212 nmol/min/mg
